Data on five molecules can be found in publication PMC8423306, “Coordinated action of multiple transporters in the acquisition of essential cationic amino acids by the intracellular parasite Toxoplasma gondii” (PLoS Pathogens, 2021).

Data set [1] deals with T1, TgApiAT6-1 (Toxoplasma gondii, UniProt A0A125YQS6).
T1 construct: gene ApiAT6-1; HA-tagged TgApiAT6-1 open reading frame expressed in Xenopus laevis oocytes
T1 sequence (A0A125YQS6 1-566): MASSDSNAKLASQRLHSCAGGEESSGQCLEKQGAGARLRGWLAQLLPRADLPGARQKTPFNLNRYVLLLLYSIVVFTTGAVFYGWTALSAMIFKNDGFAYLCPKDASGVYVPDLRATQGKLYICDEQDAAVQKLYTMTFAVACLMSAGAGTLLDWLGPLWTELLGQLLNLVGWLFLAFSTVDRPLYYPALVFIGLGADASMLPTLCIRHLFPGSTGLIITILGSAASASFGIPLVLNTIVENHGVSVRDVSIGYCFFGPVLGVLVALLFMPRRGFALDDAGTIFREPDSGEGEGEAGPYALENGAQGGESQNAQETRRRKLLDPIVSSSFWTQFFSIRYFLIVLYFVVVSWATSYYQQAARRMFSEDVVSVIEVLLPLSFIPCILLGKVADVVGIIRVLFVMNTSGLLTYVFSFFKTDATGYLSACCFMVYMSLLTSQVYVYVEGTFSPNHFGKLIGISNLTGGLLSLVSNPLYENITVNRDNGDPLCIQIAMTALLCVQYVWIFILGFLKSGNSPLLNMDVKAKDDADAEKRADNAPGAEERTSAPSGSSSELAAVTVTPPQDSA
The data set is described as follows: radiolabelled uptake in Xenopus oocytes; inhibition of Arg uptake at […]; trans-stimulation. It counts as cell-based.

Data set [2] has as its target T1, TgApiAT6-1. Put plainly: inhibition of […]Arg uptake at […] and trans-stimulation of Arg uptake in Xenopus oocytes. It counts as cell-based.
The target of data set [3] is T1, TgApiAT6-1. Put plainly: inhibition of […]Arg uptake at […] and trans-stimulation of Arg efflux in Xenopus oocytes. It counts as cell-based.
Substrate in data set [4]: N=C(N)NCCC[C@H](N)C(=O)O
The data set is described as follows: cells, lysate or membranes. Conditions: same binding site as Lys. It counts as cell-based, Toxoplasma gondii.

Substrate in data set [5]: NCCCC[C@H](N)C(=O)O
The data set is described as follows: cells, lysate or membranes. Conditions: same binding site as Arg; competitive with Arg. It counts as cell-based, Toxoplasma gondii.

In the case of `CSCC[C@H](N)C(=O)O` [Met, methionine], the “radiolabelled uptake in Xenopus oocytes; inhibition of Arg uptake at 10 mM; tran” value in data set [1] was “TgApiAT6-1 also mediated uptake of Arg and some neutral amino acids including Met and Leu”.

Consider `N[C@@H](Cc1ccccc1)C(=O)O` [Phe, phenylalanine], for which the “inhibition of [14C]Arg uptake at 10 mM and trans-stimulation of Arg uptake in Xe” value in data set [2] was “numerous neutral amino acids including Met, Leu, Phe and His partially inhibited Arg uptake”.

Take `CC(C)C[C@H](N)C(=O)O` [Leu, leucine]: the “radiolabelled uptake in Xenopus oocytes; inhibition of Arg uptake at 10 mM; tran” value in data set [1] is “TgApiAT6-1 also mediated uptake of Arg and some neutral amino acids including Met and Leu”.

For the molecule `N[C@@H](Cc1c[nH]cn1)C(=O)O` [His, histidine], in data set [3], the “inhibition of [14C]Arg uptake at 10 mM and trans-stimulation of Arg efflux in Xe” value was “numerous neutral amino acids including Met, Leu, Phe and His partially inhibited Arg uptake”.

B1: TgApiAT6-1 (Toxoplasma gondii ME49) (protein)
chain: T1 sequence (A0A125YQS6 1-566)
notes: HA-tagged TgApiAT6-1 open reading frame expressed in Xenopus laevis oocytes
In the case of B1, in data set [4], the K0.5 is 748 µM, the kcat was found to be 0.28 ± 0.1 s⁻¹ and the catalytic efficiency (kcat/Km) was 379 M⁻¹ s⁻¹. In data set [5], the K0.5 was found to be 22.8 µM, the kcat was 0.042 ± 0.004 s⁻¹ and the kcat/Km was found to be 1840 M⁻¹ s⁻¹.
